From the DeepSol protein solubility set come the findings set out here.

This data set is described as follows: soluble on expression in E. coli; label from the status in PepcDB or PDB records.
As to “GPGSMSKGAVVLVLDITLPRAAALVEACNLCDRILTDKMIYAPSDEVSVILAGTEKSRSALYEQSVQARYNHITVAAELGPATSLTLAPIAATRAGVAVLPEGETVRPSIAEAYDFIDALQVAVAVLQARTSQKKYNRCIYFLTDARHEVRHKEDLLSLIDILQRDQVALVVIGFDFQALPAPADSQGEFNESTTVVPSAWAALDRKAQNERILAALCTELGPPSTLVSPAEALASLSLLRCRRIRQQPVLKVALRMGDVRLATQLFTLTQEERLPSLRRSTQDGVDVAQTIEYVVLGGVEERPCALAKEERVEAFFLGVDRISCSEADREAMRVKGPRALEAIGFVGEAEVEPYLLMGGTRALLPLAGDHAGQRGFNALVDAMASSRKAMLVRLVRTADAAPSLCVCFARTAGSSAAQRHLVLAPLPFAEDVRALRFSEYPELQFSAAEEQLMDELIDGLSVDDSVLAPHDTFNPVLQQYYATLRAKLSAMNVSAEKGNTKATSPEAAVPQLLPTLRGTSTDFFAEGSEVYEVVSAHRSALVSCATAFPYEDEADALLSGSRDAGRKGKPWYQDVAMTPSLIGPQAGSPPPAAQGSDGAPSTIAPAIAGGARCGGEADEASAGSHTASDANSISTVPHDTISGGVSFAITSVDPVGSFSMIVHHPAVTEAQLNKAKDDLSDVIWELLRSSIKDAIYRKCMACIMALRQFCVTQDDAAYYNDFLLKLEVVARQCSRDADFWVPYVVERKDGANVWPITAQECKSAALPDDTAAKAFLQKDRFDPAIAFDDTADDDDWLAEIQ”, the “soluble on expression in E. coli” value was “not soluble”.

As for “MSDLSSSLCQLNWLIAKGGLNTVQEIEVPENPNIVGSPVAPAHEGKRRRIFDGADKPPYSYSQLIRLAIEDTPDKKCTLAEIYSFIAHNFQFYRENRNSSWKNSIRHNLSLNKQFSRIEKTDGDRRGWWVCVDPPAKKPRILKGSPVRVNPIYEHLYHNKQDMPNFTPPPEDPFLSEINGNVHELTEHEIRDLNLFESYDLNSSFRDVYNQIFEKSTSPNGKKQAAQIDWLKISLEAAGLDYHDEQELQEVDTDKLKDYVYNGFPAECDSDVSTPRTDSGRHSSSDSVLSATLQPVNNDSDDEYDWDKLL”, the “soluble on expression in E. coli” value is listed as “not soluble”.

“SPSDVLVIENKHLTKEWPSGGQMMVNNLTAKYTSDGRAVLQDLSFSVNAGQRVGLLGRTGAGKSTLLSALLRLLSTEGEIQIDGISWNSVSLQKWRKAFGVIPQKVFVFSGTFRKNLDPYEQWSDEEIWKVTEEVGLKSMIEQFPDKLNFVLVDGGYILSNGHKQLMCLARSILSKAKILLLDEPTAHLDPVTFQIIRKTLKHTFSNCTVILSEHRVEALLECQQFLVIEGCSVKQFDALQKLLTEASLFKQVFGHLDRAKLFTAHRRNSSKRKTRPKISALQEEAEEDLQETRL”: the “soluble on expression in E. coli” value was “soluble”.

Consider “MNSFVLMATVIREPELRFTKENQTPVCEFLVEFPGMRDDSPKESLKVVGWGNLANTIKETYHPGDRLIIEGRLGMNMIERQEGFKEKRAELTASRISLVDSGNGINPGELSSPPEPEAVDLSNTDDIPFLEHHHHHH”, for which the “soluble on expression in E. coli” value is listed as “soluble”.

With “MPCRLRKITVYETKSRFYIIGCDSTGSRYNVLKIDRIDPKALITGEPEYDYTREEILELLATISDGSSVVYRSSSKKGTKSGLIERATNAFGILGCVRFVEGYYLIIITRAHAVATLGYHPVYKIVEVAMIPIAMDGVSTSSEEQKYVKLFQSVDLSTDFYFSYSYDMSRTFQENSLRSDWNNHGQRRLEADERFVWNSFLLEPLRKNLISERWFVEIVHGYVRQEYIFLPIGRISLTIIGRRSTKYAGTRFLKRGANPTGNVANYVETEQIVWDMASSGNVADGRFSSFVQMRGSVPMRWSQDPSTRGVVGKPLILIDNHEPHAQTAASHFRDVRNKYGNPIVIMNLIKRNEKRRHEGVLHTQFLKNIEYLNQFLPNEEKLCYISFDVARCNKAANSMPSINVLNVMEDLSMKSILKNGWFQSFPLSEALKIRPREAFATLDAHHSKDGRFMIQHGICRTNCVDCLDRTNVAQFVIAKVALGCQLCAMGILDEPNLTLQSEVCRLLEDMFDEHGDTMALQYAGSQLVHSIKTYKKTAAFQERRRDVFQTLSRYYSNTFNDWDKQMAINLFLGVFRPRITTMKNLWDLTSDYNLHFPYSLKINTDYCAWTLSEKELEDLVFLDYDESENSDGYVEIRSIDVDGRRGSEGSEYRTLLFSSHEDFRDYHRTYEFTSLDDRIGRLFSIENRAIQVDGINEEPTTHAQFLKLWKTTETKEKDQKKPNKKDKEEKESDDEDDDEEISTQWSDVVEAQQEWYDLVNAPGNVTTTLQKSPTKRESTPPRNTSRAKRSLLSTGLQFAKDIYHLDHLKTQPEERRYYEKYAITAFKCNVRDWEKVKPTLLSEFKITSEVEPRRPTFFTTDDCYRTESPEVSGNSARFYIKSSHPLTTECSAQDYGFFSKYMQAT”, the “soluble on expression in E. coli” value is reported as “not soluble”.

Consider “MALDVKKYPFIKSLDDELKKYGGGITLTDLLLNSTTLIDQAKDRIQKTKSGDELPHYVSYNEPVLVFYTTLLSLAILNDVKLIRRYAYAEAKQFRSLLHTENEENLLEISKLLDLKINRCDPIKFYLEKKRRIIQKEFCVHFIDYLKYTKDLKEDWKLSGQILHKGYVYLDKNQLIGLIAESIKSKIVEMIRPLNLKEIPEKLKSLIERRGI”, for which the “soluble on expression in E. coli” value is “soluble”.

On to “MSLETSRNLSNFFDVSADLLSISNMQGRFVKVNRAWETALGYPIEALEGVPFLPLLHPEDQQSTRVQINRIEVDDEVNGFVNRYRRADGSYCQLEWRARRCDDLVFGVARDVTERLRIQAEMAEARDAAEAANRAKNDFLANMSHEIRTPLNGVIALAAALDETPLTSKQAEMVAMIRRSGETLERLVSDILDVSKIEAGQMTLQPQAFDLGALVDGLLDVTRLRAKEKGVAVRLERSPTAAGGFLGDSVRIGQVLSNLFSNAVKFTDQGEVIVRVDVEEAGNGQAARLFVEVEDTGVGFDAEKAEMIFQRFNQADSTITRRFGGSGLGLSISKTLVEMMGGEITAQSSPGAGSLFRVTLPLSRTQMGPDAEIDAPRSAAPGEGLKVLLAEDHPINQRVVQLILEPCGAAVTVVENGAQAVEAMASGAFDVVLMDMQMPVMDGLAATRAIRAREGEGQRTPIIMLSANAMDVHRREALQAGADLHVPKPITIAALLDSIGQVMAREGHHHHHH”, for which the “soluble on expression in E. coli” value is reported as “soluble”.

Take “MAHHHHHHMLRDELPPEKGQQSFSLWSRILRSIDGCKLEIVLDDQTEADKIKVVDIYDKVSERFPLYSWKEPVKGRVVVTPTGSSYSHQGVVVELIGVASTFREVESRVVFLRQERQFEPDTLNQSTPFEFTFSAPKEHESYHGIYARVRYFVQATVKQRIKSPSVKEEVWVHRVDTALSESQTDASAHMNYFRETCFGPESIAMNVGVDNVLHIEFRYDKKIFHLAERVLGKVEYKVADMDIAYGEVGLVRKEFLAPGQTDETMESETLQKFEIMDGTPIVEEVVPIRLYLKSVPRLTPSYMDVENLFSVRYFLNLVLVNQEGKRYFKQQEIQLYRRTGQERSATSFNSGLPVTPASGDVDAKGGWSA”: the “soluble on expression in E. coli” value is recorded as “not soluble”.

“AFTGKFEMESEKNYDEFMKLLGISSDVIEKARNFKIVTEVQQDGQDFTWSQHYSGGHTMTNKFTVGKESNIQTMGGKTFKATVQMEGGKLVVNFPNYHQTSEIVGDKLVEVSTIGGVTYERVSKRLA”: the “soluble on expression in E. coli” value is reported as “soluble”.

Consider “MIEIESRELADIPVLHAYPVGQKDTPLPCVIFYHGFTSSSLVYSYFAVALAQAGLRVIMPDAPDHGSRFSGDEARRLNQFWQILLQSMQEFTTLRAAIAEENWLLDDRLAVGGASMGAMTALGITARHPTVKCTASMMGSGYFTSLARSLFPPLIPETAAQQNEFNKIVAPLAEWEATNHLEQLGDRPLLLWHGLDDDVVPADESLRLQQALSETGRDKLLTCSWQPGVRHRITPEALDAAVTFFRQHL”, for which the “soluble on expression in E. coli” value is listed as “not soluble”.

In the case of “NYMGNPWTEYMAKYDIEEVHGSGIRVDLGEDAEVAGTQYRLPSGKCPVFGKGIIIENSNTTFLTPVATGNQYLKDGGFAFPPTEPLMSPMTLDEMRHFYKDNKYVKNLDELTLCSRHAGNMIPDNDKNSNYKYPAVYDDKDKKCHILYIAAQENNGPRYCNKDESKRNSMFCFRPAKDISFQNYTYLSKNVVDNWEKVCPRKNLQNAKFGLWVDGNCEDIPHVNEFPAIDLFECNKLVFELSASDQPKQYEQHLTDYEKIKEGFKNKNASMIKSAFLPTGAFKADRYKSHGKGYNWGNYNTETQKCEIFNVKPTCLINNSSYIATTALSHPIEVE”, the “soluble on expression in E. coli” value was “soluble”.

As to “MRSYRAQGPLPGFYHYYPGVPAVVGVRVEERVNFCPAVWNTGLSADPPLFGVSISPKRFTHGLLLKARRFSASFHPFGQKDLVHWLGSHSGREVDKGQAPHFLGHTGVPILEGAYAAYELELLEVHTFGDHDLFVGRVVAVWEEEGLLDEKGRPKPGLALLYYGKGLYGRPAEETFAP”, the “soluble on expression in E. coli” value was “soluble”.

In the case of “MSSAATPPPMEHTSSEDSTTAPLQTPSSSSCLDVTVAVGTSVSYLKASPLVSSPTSLVVDITESSSTLLYDKIKALPCEPVVTEVDTSTLRKETLNQIDGLLGPSPEALELRQLLNSPHLASCVQALDVVVCEIRDPKNEASGSGDKEGNCVSSDPAPAYLNGGVLPLGAQRAGTSFEHFNQSAVHTSYDEEEEELYDCMSRLRLVQFQKDTQEPMGITLKVNEDGRCFVARIMHGGMIHRQATLHVGDEIREINGMSVANRSVESLQEMLRDARGQVTFKIIPSYRSAPPACEIFVRAQFDYEPSQDDLIPCPQAGIPFKTGDILQVISKDDHNWWQARFVSSFPSIGNSSNAQRSNQQQVAGLIPSPELQEWRTACLAMERSKNTCNTHCMWFNKKKKYYTTKYLQKHSALFDQLDLVTYEEVMRLSQYRRKTLVLLGAHGVGRRHIKNTLIHRHPNRFAYPIPHTTRPPRKDEVDGKHYYFVTNEQMMADIQNNEYLEYGTHEESMYGTKLETIRNIHKSGKIAILDVEPQALKVLRTAEYSPFVVFIAAPNLQGMQDPDGSLEKLLNESDVLRQAFGHLFDFIITNSDIDDTIAQLERLVEKLPAYPQWLPVTWVY”, the “soluble on expression in E. coli” value is on record as “not soluble”.

For the sequence “MATHVAIIGNGVGGFTTAQALRAEGFEGRISLIGDEPHLPYDRPSLSKAVLDGSLERPPILAEADWYGEARIDMLTGPEVTALDVQTRTISLDDGTTLSADAIVIATGSRARTMALPGSQLPGVVTLRTYGDVQVLRDSWTSATRLLIVGGGLIGCEVATTARKLGLSVTILEAGDELLVRVLGRRIGAWLRGLLTELGVQVELGTGVVGFSGEGQLEQVMASDGRSFVADSALICVGAEPADQLARQAGLACDRGVIVDHCGATLAKGVFAVGDVASWPLRAGGRRSLETYMNAQRQAAAVAAAILGKNVSAPQLPVSWTEIAGHRMQMAGDIEGPGDFVSRGMPGSGAALLFRLQERRIQAVVAVDAPRDFALATRLVEARAAIEPARLADLSNSMRDFVRANEGDLT”, the “soluble on expression in E. coli” value is “soluble”.

With “MGSDKIHHHHHHMALYEPFPNYIWNLSVSIAMESGGQIGEIVDMCQPIIDAASNGGDAGTPQFMKQWAAYGDKLIALAAEDEARGRMFSASNKLERASLYLLVAERMQGHGAPGRKESYAKARDAFDKSTALGKINRERVEIPLGKGTMPALYTRAPGNGPHPVVVYCNGLDSCKELLYWSRLPEALARRGISTICVDQPGSGEALRLQDLPVDPHSENWASKAVDWLEQQPDVDPKRIGMTGISLGGHFAPRAVAYEPRFASGAVWGANHNWREVQDKRLKREGENPVPHYWAHVMWAFGASDMDDFMVKSEDMNLNGHMDRIKVPFLVTHGADDRQISVSYADDLYDQLVNSPRREKVIFTAREGGVEHVGADNMAYGRDCIADWFAETLGGTTA”, the “soluble on expression in E. coli” value was “not soluble”.
